Reference: patent publication US20200407452A1 (published 2020)

Experiments:
[1] = molecular target: T1, native mouse MET on living cells (mouse, UniProt P16056 25-1379); assay: cell-based or functional assay
[2] = molecular target: T2, native human MET on living cells (human, UniProt P08581 25-1390); assay: cell-based or functional assay
[3] = molecular target: T1, native mouse MET on living cells; assay: cell-based or functional assay; remark: listed apart in the source
[4] = molecular target: T2, native human MET on living cells; assay: cell-based or functional assay; remark: listed apart in the source
mouse MET ECD = molecular target: T3, mouse MET ECD (mouse, UniProt P16056 25-931); assay: ELISA, MET ECD coated, mAb 0-20 nM
T3 construct: range 1-931; recombinant; range as printed includes the signal peptide; also called mMET; mMET ECD
Procedure: (§1) Production (by transient transfection of mammalian cells) and purification (by protein A affinity chromatography) of the resulting chimeric llama-human IgG1 molecules was outsourced to U-protein Express. Binding of chimeric mAbs to MET was determined by ELISA using hMET or mMET ECD in solid phase and increasing concentrations of antibodies (0-20 nM) in solution. […] Binding capacity (EMAX) varied from antibody to antibody, possibly due to partial epitope exposure in the immobilized antigen, but was similar in the human and mouse setting.

human MET ECD = molecular target: T4, human MET ECD (human, UniProt P08581 25-932); assay: ELISA, MET ECD coated, mAb 0-20 nM
T4 construct: range 1-932; recombinant; range as printed includes the signal peptide; also called hMET; hMET ECD
T4 sequence (P08581 25-932 limits assumed, form in doubt): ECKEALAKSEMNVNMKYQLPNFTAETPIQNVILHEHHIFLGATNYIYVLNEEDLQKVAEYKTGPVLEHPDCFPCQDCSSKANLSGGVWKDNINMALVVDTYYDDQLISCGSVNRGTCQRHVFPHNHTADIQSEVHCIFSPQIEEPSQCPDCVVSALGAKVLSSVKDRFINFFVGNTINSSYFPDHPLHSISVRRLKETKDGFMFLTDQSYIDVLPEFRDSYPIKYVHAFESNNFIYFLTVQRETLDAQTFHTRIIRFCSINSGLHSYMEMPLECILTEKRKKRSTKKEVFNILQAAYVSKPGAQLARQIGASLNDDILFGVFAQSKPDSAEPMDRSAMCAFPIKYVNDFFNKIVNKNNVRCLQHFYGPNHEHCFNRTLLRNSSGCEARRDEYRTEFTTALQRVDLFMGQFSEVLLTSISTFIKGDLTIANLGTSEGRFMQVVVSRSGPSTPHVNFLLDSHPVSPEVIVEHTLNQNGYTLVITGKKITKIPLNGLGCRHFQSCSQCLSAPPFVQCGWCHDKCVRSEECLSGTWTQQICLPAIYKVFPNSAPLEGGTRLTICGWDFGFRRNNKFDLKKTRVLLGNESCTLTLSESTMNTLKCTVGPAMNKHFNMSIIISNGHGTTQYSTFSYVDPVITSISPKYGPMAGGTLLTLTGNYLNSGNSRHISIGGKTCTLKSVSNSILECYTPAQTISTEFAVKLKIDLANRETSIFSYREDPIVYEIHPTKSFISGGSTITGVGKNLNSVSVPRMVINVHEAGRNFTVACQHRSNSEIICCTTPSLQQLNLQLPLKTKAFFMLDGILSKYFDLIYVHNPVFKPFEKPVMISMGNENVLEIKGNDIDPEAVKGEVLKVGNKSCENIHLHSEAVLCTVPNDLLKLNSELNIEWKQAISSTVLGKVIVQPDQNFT
Procedure: as §1

T2 sequence (P08581 25-1390): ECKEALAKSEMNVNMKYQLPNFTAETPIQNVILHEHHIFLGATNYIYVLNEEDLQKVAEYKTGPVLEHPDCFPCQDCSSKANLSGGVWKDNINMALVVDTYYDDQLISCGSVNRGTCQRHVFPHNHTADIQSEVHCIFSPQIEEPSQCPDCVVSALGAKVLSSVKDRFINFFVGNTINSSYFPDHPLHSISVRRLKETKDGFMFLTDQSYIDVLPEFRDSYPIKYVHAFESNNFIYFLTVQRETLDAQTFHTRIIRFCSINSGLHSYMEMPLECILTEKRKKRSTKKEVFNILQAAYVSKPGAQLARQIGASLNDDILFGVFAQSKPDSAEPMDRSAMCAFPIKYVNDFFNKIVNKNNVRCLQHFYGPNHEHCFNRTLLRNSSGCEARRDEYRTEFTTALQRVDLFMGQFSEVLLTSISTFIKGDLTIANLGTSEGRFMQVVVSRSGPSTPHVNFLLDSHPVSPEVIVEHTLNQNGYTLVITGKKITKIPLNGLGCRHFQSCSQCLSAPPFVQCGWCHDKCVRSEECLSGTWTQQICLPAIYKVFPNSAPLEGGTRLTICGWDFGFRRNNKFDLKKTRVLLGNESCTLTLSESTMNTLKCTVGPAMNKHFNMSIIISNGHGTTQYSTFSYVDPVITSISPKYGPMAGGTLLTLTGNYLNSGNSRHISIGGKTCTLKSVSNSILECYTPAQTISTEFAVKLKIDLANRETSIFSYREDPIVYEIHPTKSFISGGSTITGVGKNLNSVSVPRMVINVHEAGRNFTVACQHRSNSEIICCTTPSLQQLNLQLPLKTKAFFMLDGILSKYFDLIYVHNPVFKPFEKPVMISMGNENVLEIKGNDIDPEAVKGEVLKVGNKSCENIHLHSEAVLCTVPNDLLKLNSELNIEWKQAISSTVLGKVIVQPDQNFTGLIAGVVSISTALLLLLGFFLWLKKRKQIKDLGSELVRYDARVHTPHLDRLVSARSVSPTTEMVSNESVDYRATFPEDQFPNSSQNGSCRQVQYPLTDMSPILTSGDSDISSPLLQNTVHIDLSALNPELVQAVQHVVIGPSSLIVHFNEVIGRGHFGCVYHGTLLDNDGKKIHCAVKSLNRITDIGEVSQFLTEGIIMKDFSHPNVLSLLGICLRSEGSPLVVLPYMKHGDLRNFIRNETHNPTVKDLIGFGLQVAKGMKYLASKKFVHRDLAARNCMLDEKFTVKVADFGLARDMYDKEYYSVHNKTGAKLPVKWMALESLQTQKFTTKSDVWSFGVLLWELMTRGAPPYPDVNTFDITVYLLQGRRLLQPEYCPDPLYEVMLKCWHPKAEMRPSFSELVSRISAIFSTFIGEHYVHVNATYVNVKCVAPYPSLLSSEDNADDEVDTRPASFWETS

Row | Binder | protection from staurosporine-induced apoptosis EC50, MLP29 cells [1] | protection from staurosporine-induced apoptosis EMAX, MLP29 cells [1] | protection from staurosporine-induced apoptosis EC50, MCF10A cells [2] | protection from staurosporine-induced apoptosis EMAX, MCF10A cells [2] | phospho-MET ELISA EMAX, MLP29 cells [3] | phospho-MET ELISA EMAX, A549 cells [4] | EMAX (mouse MET ECD) | EMAX (human MET ECD)
1 | 71G12 chimeric llama-human IgG1 mAb (antibody, V domains shown, human IgG1 CH1-CH2-CH3 and human CL kappa) VH: QVQLQESGGDLVQPGGSLRVSCVVSGFTFSRYYMSWVRQAPGKGLEWVSSIDSYGYSTYYTDSVKGRFTISRDNAKNTLYLQMNSLKPEDTALYYCARAKTTWSYDYWGQGTQVTVSS VL: EIVLTQSPSSVTASVGGKVTINCKSSQSVFIASNQKTYLNWYQQRPGQSPRLVISYASTRESGIPDRFSGSGSTTDFTLTISSVQPEDAAVYYCQQAYSHPTFGQGTKVELK | > 0.032 µM | 39.7% | > 0.032 µM | 39.4% | 75.4 % HGF activity | 70.6 % HGF activity | 2.97 OD450 AU | 3.08 OD450 AU
2 | recombinant mouse HGF (R&D Systems) (ligand, UniProt Q08048 33-728, looked up, biotinylated at the N-terminus using NHS-LC-biotin (in the competition ELISA only)) QKKRRNTLHEFKKSAKTTLTKEDPLLKIKTKKVNSADECANRCIRNRGFTFTCKAFVFDKSRKRCYWYPFNSMSSGVKKGFGHEFDLYENKDYIRNCIIGKGGSYKGTVSITKSGIKCQPWNSMIPHEHSFLPSSYRGKDLQENYCRNPRGEEGGPWCFTSNPEVRYEVCDIPQCSEVECMTCNGESYRGPMDHTESGKTCQRWDQQTPHRHKFLPERYPDKGFDDNYCRNPDGKPRPWCYTLDPDTPWEYCAIKTCAHSAVNETDVPMETTECIQGQGEGYRGTSNTIWNGIPCQRWDSQYPHKHDITPENFKCKDLRENYCRNPDGAESPWCFTTDPNIRVGYCSQIPKCDVSSGQDCYRGNGKNYMGNLSKTRSGLTCSMWDKNMEDLHRHIFWEPDASKLNKNYCRNPDDDAHGPWCYTGNPLIPWDYCPISRCEGDTTPTIVNLDHPVISCAKTKQLRVVNGIPTQTTVGWMVSLKYRNKHICGGSLIKESWVLTARQCFPARNKDLKDYEAWLGIHDVHERGEEKRKQILNISQLVYGPEGSDLVLLKLARPAILDNFVSTIDLPSYGCTIPEKTTCSIYGWGYTGLINADGLLRVAHLYIMGNEKCSQHHQGKVTLNESELCAGAEKIGSGPCEGDYGGPLICEQHKMRMVLGVIVPGRGCAIPNRPGIFVRVAYYAKWIHKVILTYKL | 0.00535 µM | 58.6% |  |  | 100 % HGF activity |  |  | 

Next, values leading:

Row | protection from staurosporine-induced apoptosis EC50, MLP29 cells [1] | protection from staurosporine-induced apoptosis EMAX, MLP29 cells [1] | protection from staurosporine-induced apoptosis EC50, MCF10A cells [2] | protection from staurosporine-induced apoptosis EMAX, MCF10A cells [2] | phospho-MET ELISA EMAX, MLP29 cells [3] | phospho-MET ELISA EMAX, A549 cells [4] | EMAX (mouse MET ECD) | EMAX (human MET ECD) | Binder
3 | > 0.032 µM | 37.5% | > 0.032 µM | 41.7% | 102 % HGF activity | 87.6 % HGF activity | 0.896 OD450 AU | 0.994 OD450 AU | 74C8 chimeric llama-human IgG1 mAb (antibody, V domains shown, human IgG1 CH1-CH2-CH3 and human CL lambda) VH: EVQLVESGGGLVQPGGSLRLSCAASGFTFRNYHMSWVRQVPGKGFEWISDINSAGGSTYYADSVKGRFTISRDNAKNTLYLEMNSLKPEDTALYYCARVNVWGVNYWGKGTLVSVSS VL: QTVVTQEPSLSVSPGGTVTLTCGLSSGSVTTSNYPGWFQQTPGQAPRTLIYNTNSRHSGVPSRFSGSISGNKAALTITGAQPEDEADYYCSLYPGSYTNVFGGGTHLTVL
4 | 0.0301 µM | 50.2% | 0.0254 µM | 51.9% | 71.5 % HGF activity | 62.3 % HGF activity | 2.78 OD450 AU | 2.62 OD450 AU | 76G7 chimeric llama-human IgG1 mAb (antibody, V domains shown, human IgG1 CH1-CH2-CH3 and human CL lambda) VH: QVQLVESGGNLVQPGGSLRLSCAASGFTFSNYYMSWVRQAPGKGLEWVSDIYSDGSTTWYSDSVKGRFTISRDNAKNTLSLQMNSLKSEDTAVYYCARVKIYPGGYDAWGQGTQVTVSS VL: QAGLTQPPSVSGSPGKTVTISCAGNSSDVGYGNYVSWYQQFPGMAPKLLIYLVNKRASGITDRFSGSKSGNTASLTISGLQSEDEADYYCASYTGSNNIVFGGGTHLTVL
